Data: US20220064275A1 (SCHOLAR ROCK, published 2022)
Changes are numbered by the printed parent chain.

B1: Ab11 (antibody, IgG4, V domains shown)
VH: EVQLLESGGGLVQPGGSLRLSCAASGFTFRNYAMSWVRQAPGKGLEWVSSISGSGGATYYADSVKGRFTISRDNSKNTLYLQMNSLRAEDTAVYYCARVSSGHWDFDYWGQGTLVTVSS
VL: DIQLTQSPSSLSASVGDRVTITCRASQSISSYLNWYQQKPGKAPKLLIYAASNLQSGVPSRFSGSGSGTDFTLTISSLQPEDFATYYCQQTYTVPLTFGGGTKVEIK
B2: Ab35 (antibody, IgG4, V domains shown)
VH: B1 VH with G102Y, H103L
VL: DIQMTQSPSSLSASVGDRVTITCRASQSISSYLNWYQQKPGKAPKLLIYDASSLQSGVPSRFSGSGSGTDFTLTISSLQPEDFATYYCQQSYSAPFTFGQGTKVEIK
B3: Ab20 (antibody, IgG4, V domains shown)
VH: B1 VH with R30S, N31A, S35T, S50A, A57V, F106Y
VL: B1 VL
B4: Ab12 (antibody, IgG4, V domains shown)
VH: B1 VH with E1Q, L5V, L11V, G16R, R30S, N31D, S35V, S50A, G56F, A57T
VL: B1 VL
B5: Ab19 (antibody, IgG4, V domains shown)
VH: QVQLVESGGGVVQPGRSLRLSCAASGFTFSSFAMTWVRQAPGKGLEWVSAISGSGAATYFADSVKGRFTISRDNSKNTLYLQMNSLRAEDTAVYYCARVSSGHWDFDEWGQGTLVTVSS
VL: B1 VL
B6: Ab30 (antibody, IgG4, V domains shown)
VH: EVQLVESGGGLVQPGGSLRLSCAASGFTFSSFSMDWVRQAPGKGLEWVSYISPDASTIYYADSVKGRFTISRDNAKNSLYLQMNSLRAEDTAVYYCARGTLDYGDMLDPWGQGTLVTVSS
VL: DIQMTQSPSSLSASVGDRVTITCQASQDITNYLNWYQQKPGKAPKLLIYDASNLETGVPSRFSGSGSGTDFTFTISSLQPEDIATYYCQQADNHPPWTFGGGTKVEIK
B7: Ab31 (antibody, IgG4, V domains shown)
VH: B6 VH with S78T, G99A, T100V
VL: B6 VL
B8: Ab33 (antibody, IgG4, V domains shown)
VH: B6 VH with D35N, D54S, S56D, S78T, R98H, T100V
VL: B6 VL
B9: Ab32 (antibody, IgG4, V domains shown)
VH: B6 VH with D35N, D54S, S56D, S78T, T100V, L101W, Y103M
VL: B6 VL
B10: Ab29 (antibody, IgG4, V domains shown)
VH: B6 VH with G16R, S33A, D35N, D62G, A97V, G99A, T100V
VL: B6 VL
B11: Ab22 (antibody, IgG4, V domains shown)
VH: B6 VH with S30G, D35N, S52H, P53S, T100V
VL: B6 VL
B12: Ab26 (antibody, IgG4, V domains shown)
VH: B6 VH with S78T, T100V
VL: B6 VL
B13: Ab25 (antibody, V domains shown)
VH: B6 VH with S30G, T100V
VL: B6 VL
B14: Ab24 (antibody, IgG4, V domains shown)
VH: B6 VH with G16R, S33A, D35Y, T100V
VL: B6 VL
B15: Ab4 (antibody, IgG4, V domains shown)
VH: B6 VH with F32Y, D35N, P53S, D54S, A55S, T100V
VL: B6 VL
notes: also called parental lead antibody of Ab6

Target: T1, human LTBP1-proTGFβ1 complex (human, UniProt Q14766 873-1507)
T1 construct: range 873-1507; biotinylated in Octet and MSD-SET; also called hLTBP1-proTGFβ1; hLTBP1
Assay: BLI (Octet)

Row | Kd [nM] | Binder
1 | 0.167 | B1
2 | 0.159 | B2
3 | 0.192 | B3
4 | 0.157 | B4
5 | 0.189 | B5
6 | 0.332 | B6
7 | 0.236 | B7
8 | 0.179 | B8
9 | 0.269 | B9
10 | 0.189 | B10
11 | 0.318 | B11
12 | 0.221 | B12
13 | 0.217 | B13
14 | 0.246 | B14

Target: T2, human LRRC33-proTGFβ1 complex (human, UniProt Q86YC3 19-650; P01137 30-390)
T2 construct: also called hLRRC33-proTGFβ1; hLRRC33
Assay: BLI (Octet)

T2 sequence (Q86YC3 other isoform, or with tags, fused parts or gaps limits assumed, chain 1 of 2): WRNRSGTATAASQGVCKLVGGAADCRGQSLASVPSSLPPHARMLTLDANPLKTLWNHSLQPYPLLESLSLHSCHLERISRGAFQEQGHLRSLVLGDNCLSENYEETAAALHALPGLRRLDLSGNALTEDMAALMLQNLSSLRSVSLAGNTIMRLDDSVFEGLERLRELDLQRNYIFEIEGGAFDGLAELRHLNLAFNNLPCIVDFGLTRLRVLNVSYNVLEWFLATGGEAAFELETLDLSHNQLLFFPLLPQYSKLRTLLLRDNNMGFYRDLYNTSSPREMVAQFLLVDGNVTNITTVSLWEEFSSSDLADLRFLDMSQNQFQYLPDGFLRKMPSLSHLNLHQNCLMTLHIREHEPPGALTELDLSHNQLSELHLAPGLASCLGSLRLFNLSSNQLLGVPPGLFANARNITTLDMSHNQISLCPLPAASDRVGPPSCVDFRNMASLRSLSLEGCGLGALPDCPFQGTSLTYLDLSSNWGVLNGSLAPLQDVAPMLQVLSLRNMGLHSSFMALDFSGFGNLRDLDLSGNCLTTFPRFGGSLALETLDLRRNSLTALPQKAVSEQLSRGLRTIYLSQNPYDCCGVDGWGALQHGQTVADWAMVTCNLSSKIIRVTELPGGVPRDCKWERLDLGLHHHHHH
T2 sequence (P01137 30-390 limits assumed, chain 2 of 2): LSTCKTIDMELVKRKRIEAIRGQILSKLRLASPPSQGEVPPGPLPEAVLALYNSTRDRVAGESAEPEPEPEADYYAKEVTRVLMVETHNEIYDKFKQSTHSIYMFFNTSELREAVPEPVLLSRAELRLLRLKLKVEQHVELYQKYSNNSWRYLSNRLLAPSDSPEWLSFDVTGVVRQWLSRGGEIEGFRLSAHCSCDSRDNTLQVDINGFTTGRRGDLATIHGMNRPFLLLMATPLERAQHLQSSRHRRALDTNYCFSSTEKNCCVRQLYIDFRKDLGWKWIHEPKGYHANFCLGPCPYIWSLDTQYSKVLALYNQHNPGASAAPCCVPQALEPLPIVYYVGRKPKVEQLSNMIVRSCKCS

Row | Kd [nM] | Binder
15 | 0.555 | B1
16 | 0.545 | B2
17 | 0.545 | B3
18 | 0.775 | B4
19 | 0.692 | B5
20 | 0.535 | B6
21 | 0.41 | B7
22 | 0.339 | B8
23 | 0.698 | B9
24 | 0.302 | B10
25 | 0.415 | B11
26 | 0.36 | B12
27 | 0.409 | B13
28 | 0.41 | B14

Target: T3, human LTBP3-proTGFβ1 complex (human, UniProt Q9NS15 866-1039)
T3 construct: range 866-1039; also called hLTBP3-proTGFβ1; hLTBP3
Assay: BLI (Octet)

T3 sequence (Q9NS15 866-1039 limits assumed, chain 1 of 2): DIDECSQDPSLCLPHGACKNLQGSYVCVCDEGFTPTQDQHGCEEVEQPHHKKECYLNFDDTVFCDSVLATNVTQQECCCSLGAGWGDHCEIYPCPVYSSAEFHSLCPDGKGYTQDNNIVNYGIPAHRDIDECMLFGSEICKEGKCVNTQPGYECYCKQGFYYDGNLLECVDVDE
T3 sequence (chain, as listed by the source limits assumed, chain 2 of 2): as the sequence (P01137 30-390 limits assumed, chain 2 of 2) above

Row | Kd [nM] | Binder
29 | 0.154 | B1
30 | 0.169 | B2
31 | 0.131 | B3
32 | 0.183 | B4
33 | 0.156 | B5
34 | 0.261 | B6
35 | 0.181 | B7
36 | 0.111 | B8
37 | 0.215 | B9
38 | 0.121 | B10
39 | 0.329 | B11
40 | 0.173 | B12
41 | 0.152 | B13
42 | 0.198 | B14

Target: T4, human GARP-proTGFβ1 complex (human, UniProt Q14392 20-627; P01137 30-390)
T4 construct: also called hGARP-proTGFβ1; hGARP
Assay: BLI (Octet)

T4 sequence (Q14392 20-627, chain 1 of 2): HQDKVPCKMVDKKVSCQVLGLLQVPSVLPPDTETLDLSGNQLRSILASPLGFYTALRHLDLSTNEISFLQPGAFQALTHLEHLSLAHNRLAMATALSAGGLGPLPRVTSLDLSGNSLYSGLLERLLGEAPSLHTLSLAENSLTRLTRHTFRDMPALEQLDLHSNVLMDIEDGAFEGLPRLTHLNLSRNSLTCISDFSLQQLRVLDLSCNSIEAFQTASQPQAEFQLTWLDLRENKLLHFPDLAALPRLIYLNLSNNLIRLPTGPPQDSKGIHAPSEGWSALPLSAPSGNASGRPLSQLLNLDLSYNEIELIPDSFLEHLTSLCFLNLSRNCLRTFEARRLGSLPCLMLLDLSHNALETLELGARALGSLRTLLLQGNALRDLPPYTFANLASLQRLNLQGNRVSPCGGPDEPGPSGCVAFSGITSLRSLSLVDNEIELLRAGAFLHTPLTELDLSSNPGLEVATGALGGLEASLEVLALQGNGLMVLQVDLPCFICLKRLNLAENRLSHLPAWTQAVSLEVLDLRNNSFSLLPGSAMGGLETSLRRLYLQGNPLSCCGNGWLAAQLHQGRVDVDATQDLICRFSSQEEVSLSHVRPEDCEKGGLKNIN
T4 sequence (P01137 30-390, chain 2 of 2): as the sequence (P01137 30-390 limits assumed, chain 2 of 2) above

Row | Kd [nM] | Binder
43 | 0.842 | B1
44 | 7.37 | B2
45 | 0.884 | B3
46 | 7.01 | B4
47 | 11.2 | B5
48 | 0.833 | B6
49 | 0.581 | B7
50 | 0.265 | B8
51 | 0.496 | B9
52 | 0.307 | B10
53 | 0.974 | B11
54 | 0.625 | B12
55 | 0.488 | B13
56 | 0.665 | B14

Target: T1, human LTBP1-proTGFβ1 complex
Assay: MSD-SET, solution equilibrium titration
Procedure: (§1) MSD-SET assays were performed to measure affinities of the antibodies at equilibrium. Briefly, each test antibody was diluted 3-5 fold and samples were mixed with biotinylated antigen in a 48-well dish. The SET samples were equilibrated for 20-24 hours at room temperature. Meanwhile, a capture plate was coated with IgG (20 nM) and incubated overnight at 4° C. or 30 minutes at room temperature, followed by a blocking step with 5% BSA. After the capture plate was washed three times, SET samples were added and incubated for 150 seconds. The plate was washed once to remove unbound complexes. 250 ng/ml SA-Sulfotag was added then washed 3 times. 2× Read Buffer was added, and signals from the labeled bound complexes were read with the use of QuickPlex™ SQ 120 instrument.

Row | Kd [nM] | Binder
57 | 1.2 | B1
58 | 0.27 | B2
59 | 0.22 | B3
60 | 0.78 | B4
61 | 2.1 | B5
62 | 4.6 | B15
63 | 0.031 | B6
64 | 0.019 | B7
65 | 0.011 | B8
66 | 0.037 | B9
67 | 0.012 | B10
68 | 0.05 | B11
69 | 0.028 | B12
70 | 0.024 | B14

Target: T2, human LRRC33-proTGFβ1 complex
Assay: MSD-SET, solution equilibrium titration
Procedure: as §1

Row | Kd [nM] | Binder
71 | 6.3 | B1
72 | 1.1 | B2
73 | 1.6 | B3
74 | 3.2 | B4
75 | 5.7 | B5
76 | 2.1 | B15
77 | 0.14 | B6
78 | 0.096 | B7
79 | 0.046 | B8
80 | 0.087 | B9
81 | 0.043 | B10
82 | 0.2 | B11
83 | 0.13 | B12
84 | 0.18 | B14

Target: T3, human LTBP3-proTGFβ1 complex
Assay: MSD-SET, solution equilibrium titration
Procedure: as §1

Row | Kd [nM] | Binder
85 | 1.2 | B1
86 | 0.26 | B2
87 | 0.18 | B3
88 | 0.66 | B4
89 | 2.7 | B5
90 | 5.5 | B15
91 | 0.026 | B6
92 | 0.014 | B7
93 | 0.007 | B8
94 | 0.026 | B9
95 | 0.011 | B10
96 | 0.033 | B11
97 | 0.023 | B12
98 | 0.021 | B14

Target: T4, human GARP-proTGFβ1 complex
Assay: MSD-SET, solution equilibrium titration
Procedure: as §1

Row | Kd [nM] | Binder
99 | 3 | B1
100 | 1.1 | B2
101 | 1.1 | B3
102 | 1.7 | B4
103 | 3.8 | B5
104 | 2.5 | B15
105 | 0.022 | B6
106 | 0.019 | B7
107 | 0.0078 | B8
108 | 0.015 | B9
109 | 0.0055 | B10
110 | 0.027 | B11
111 | 0.014 | B12
112 | 0.019 | B14

Target: hLRRC33-proTGFβ1 complex on cells (human, UniProt Q86YC3 19-692; P01137 30-390)
Assay: cell-based or functional assay

Row | IC50, reporter cell assay of TGFβ1 activation [nM] | Binder
113 | 1.27 | B1
114 | 5.37 | B2
115 | 1.35 | B3
116 | 2.43 | B4
117 | 0.401 | B5
118 | 3.5 | B15
119 | 0.738 | B8
120 | 0.458 | B10
121 | 0.341 | B12
122 | 0.653 | B13

Target: hLTBP3-proTGFβ1 complex made by transfected cells (cell-based potency assay) (human, UniProt Q9NS15 44-1303; P01137 30-390)
Assay: cell-based or functional assay

Sequence of hLTBP3-proTGFβ1 complex made by transfected cells (cell-based potency assay) (Q9NS15 44-1303, chain 1 of 2): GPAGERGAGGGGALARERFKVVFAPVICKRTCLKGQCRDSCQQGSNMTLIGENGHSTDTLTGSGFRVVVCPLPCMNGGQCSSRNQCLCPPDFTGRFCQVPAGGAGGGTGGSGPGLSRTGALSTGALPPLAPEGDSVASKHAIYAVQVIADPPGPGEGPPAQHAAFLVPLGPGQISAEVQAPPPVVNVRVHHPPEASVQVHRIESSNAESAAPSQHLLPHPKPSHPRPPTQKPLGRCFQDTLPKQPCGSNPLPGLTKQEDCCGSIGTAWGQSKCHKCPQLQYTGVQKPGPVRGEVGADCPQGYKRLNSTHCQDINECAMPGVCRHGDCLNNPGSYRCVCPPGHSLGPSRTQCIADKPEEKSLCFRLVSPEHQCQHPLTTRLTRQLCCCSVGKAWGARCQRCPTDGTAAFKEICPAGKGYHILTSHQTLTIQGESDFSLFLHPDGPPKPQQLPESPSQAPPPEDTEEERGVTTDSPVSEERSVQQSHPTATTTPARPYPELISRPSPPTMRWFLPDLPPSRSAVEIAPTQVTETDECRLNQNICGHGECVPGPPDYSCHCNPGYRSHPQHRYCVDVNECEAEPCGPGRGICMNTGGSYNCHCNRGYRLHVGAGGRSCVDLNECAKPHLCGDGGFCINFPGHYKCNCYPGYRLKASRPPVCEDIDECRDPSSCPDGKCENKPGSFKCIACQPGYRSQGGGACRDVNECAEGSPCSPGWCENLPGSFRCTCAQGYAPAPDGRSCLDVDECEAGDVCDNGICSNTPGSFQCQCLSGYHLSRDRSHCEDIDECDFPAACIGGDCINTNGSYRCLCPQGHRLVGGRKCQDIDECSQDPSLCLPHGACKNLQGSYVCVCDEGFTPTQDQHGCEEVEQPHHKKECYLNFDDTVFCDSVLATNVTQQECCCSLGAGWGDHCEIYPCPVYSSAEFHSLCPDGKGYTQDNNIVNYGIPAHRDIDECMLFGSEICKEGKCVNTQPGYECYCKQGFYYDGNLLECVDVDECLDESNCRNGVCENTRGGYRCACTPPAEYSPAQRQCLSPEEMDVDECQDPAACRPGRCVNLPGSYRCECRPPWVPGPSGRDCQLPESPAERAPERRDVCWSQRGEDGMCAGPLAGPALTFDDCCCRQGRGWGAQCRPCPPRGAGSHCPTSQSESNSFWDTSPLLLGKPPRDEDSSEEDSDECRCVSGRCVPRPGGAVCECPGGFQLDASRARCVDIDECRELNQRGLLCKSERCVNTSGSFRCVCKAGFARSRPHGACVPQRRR
Sequence of hLTBP3-proTGFβ1 complex made by transfected cells (cell-based potency assay) (P01137 30-390, chain 2 of 2): as the sequence (P01137 30-390 limits assumed, chain 2 of 2) above

Row | IC50, reporter cell assay of TGFβ1 activation [nM] | Binder
123 | 1.56 | B1
124 | 2.71 | B2
125 | 1.18 | B3
126 | 1.55 | B4
127 | 1.6 | B5
128 | 5.65 | B15
129 | 1.11 | B8
130 | 0.803 | B10
131 | 0.716 | B12
132 | 0.538 | B13

Target: hLTBP1-proTGFβ1 complex made by transfected cells (cell-based potency assay) (human, UniProt Q14766 347-1721; P01137 30-390)
Assay: cell-based or functional assay

Sequence of hLTBP1-proTGFβ1 complex made by transfected cells (cell-based potency assay) (Q14766 347-1721, chain 1 of 2): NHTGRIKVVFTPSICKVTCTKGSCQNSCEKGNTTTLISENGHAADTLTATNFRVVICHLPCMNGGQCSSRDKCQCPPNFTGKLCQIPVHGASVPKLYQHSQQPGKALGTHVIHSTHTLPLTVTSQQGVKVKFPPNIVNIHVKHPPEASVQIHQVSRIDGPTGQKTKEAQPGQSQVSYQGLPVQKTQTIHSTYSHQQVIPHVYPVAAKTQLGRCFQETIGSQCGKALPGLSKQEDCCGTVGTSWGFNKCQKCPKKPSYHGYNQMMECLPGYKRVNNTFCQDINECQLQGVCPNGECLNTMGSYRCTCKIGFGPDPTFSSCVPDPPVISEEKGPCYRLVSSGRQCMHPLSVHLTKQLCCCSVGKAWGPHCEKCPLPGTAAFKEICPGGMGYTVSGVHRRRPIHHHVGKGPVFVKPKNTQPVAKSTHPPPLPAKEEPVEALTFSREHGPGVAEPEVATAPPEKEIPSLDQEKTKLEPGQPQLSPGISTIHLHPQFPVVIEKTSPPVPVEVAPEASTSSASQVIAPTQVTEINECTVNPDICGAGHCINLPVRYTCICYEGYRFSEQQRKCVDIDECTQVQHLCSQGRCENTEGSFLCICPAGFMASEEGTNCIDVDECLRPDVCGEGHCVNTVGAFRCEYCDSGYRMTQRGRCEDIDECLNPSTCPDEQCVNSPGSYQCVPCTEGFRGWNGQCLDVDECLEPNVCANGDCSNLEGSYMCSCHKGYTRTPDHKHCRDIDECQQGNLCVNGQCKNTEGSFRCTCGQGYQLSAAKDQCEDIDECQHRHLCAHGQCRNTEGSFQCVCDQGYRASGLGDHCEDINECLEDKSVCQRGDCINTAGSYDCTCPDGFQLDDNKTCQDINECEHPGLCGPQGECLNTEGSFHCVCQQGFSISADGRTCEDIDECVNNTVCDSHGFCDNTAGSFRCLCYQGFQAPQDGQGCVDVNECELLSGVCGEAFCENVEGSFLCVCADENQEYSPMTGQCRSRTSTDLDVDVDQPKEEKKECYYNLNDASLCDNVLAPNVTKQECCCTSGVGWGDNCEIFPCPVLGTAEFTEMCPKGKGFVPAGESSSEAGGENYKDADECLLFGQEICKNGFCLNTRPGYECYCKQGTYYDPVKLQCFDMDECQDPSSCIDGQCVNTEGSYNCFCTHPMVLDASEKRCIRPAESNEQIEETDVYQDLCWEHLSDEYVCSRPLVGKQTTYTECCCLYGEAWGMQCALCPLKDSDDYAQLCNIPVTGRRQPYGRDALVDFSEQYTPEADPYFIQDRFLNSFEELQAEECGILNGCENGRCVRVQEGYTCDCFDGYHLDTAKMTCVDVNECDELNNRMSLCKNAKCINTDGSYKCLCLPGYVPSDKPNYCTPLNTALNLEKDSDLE
Sequence of hLTBP1-proTGFβ1 complex made by transfected cells (cell-based potency assay) (P01137 30-390, chain 2 of 2): as the sequence (P01137 30-390 limits assumed, chain 2 of 2) above

Row | IC50, reporter cell assay of TGFβ1 activation [nM] | Binder
133 | 2.95 | B1
134 | 6.25 | B2
135 | 1.85 | B3
136 | 3.79 | B4
137 | 1.66 | B5
138 | 5.22 | B15
139 | 1.56 | B8
140 | 0.471 | B10
141 | 0.713 | B12
142 | 6.08 | B13

Target: hGARP-proTGFβ1 complex on cells (human, UniProt Q14392 20-662; P01137 30-390)
Assay: cell-based or functional assay

Row | IC50, reporter cell assay of TGFβ1 activation [nM] | Binder
143 | 0.79 | B1
144 | 3.71 | B2
145 | 0.387 | B3
146 | 1.08 | B4
147 | 1.34 | B5
148 | 0.822 | B15
149 | 0.198 | B8
150 | 0.264 | B10
151 | 0.262 | B12
152 | 0.442 | B13

Target: T5, murine GARP-proTGFβ1 complex (mouse, UniProt G3XA59 18-628; P04202 30-390)
T5 construct: Soluble murine complex; also called mGARP-proTGFβ1
Assay: BLI screen of human and murine LLCs

Row | binding result | Binder
153 | binds | B15
